Article PMC3230689

What was measured:
FUS (FLAGHA-FUS-His6) [1] = target: T1, FUS (FLAGHA-FUS-His6) (human, UniProt P35637 1-526); assay: EMSA
FUS (FLAGHA-FUS-His6) [2] = target: T1, FUS (FLAGHA-FUS-His6); assay: EMSA; remark: listed apart in the source

T1 sequence (P35637 whole entry): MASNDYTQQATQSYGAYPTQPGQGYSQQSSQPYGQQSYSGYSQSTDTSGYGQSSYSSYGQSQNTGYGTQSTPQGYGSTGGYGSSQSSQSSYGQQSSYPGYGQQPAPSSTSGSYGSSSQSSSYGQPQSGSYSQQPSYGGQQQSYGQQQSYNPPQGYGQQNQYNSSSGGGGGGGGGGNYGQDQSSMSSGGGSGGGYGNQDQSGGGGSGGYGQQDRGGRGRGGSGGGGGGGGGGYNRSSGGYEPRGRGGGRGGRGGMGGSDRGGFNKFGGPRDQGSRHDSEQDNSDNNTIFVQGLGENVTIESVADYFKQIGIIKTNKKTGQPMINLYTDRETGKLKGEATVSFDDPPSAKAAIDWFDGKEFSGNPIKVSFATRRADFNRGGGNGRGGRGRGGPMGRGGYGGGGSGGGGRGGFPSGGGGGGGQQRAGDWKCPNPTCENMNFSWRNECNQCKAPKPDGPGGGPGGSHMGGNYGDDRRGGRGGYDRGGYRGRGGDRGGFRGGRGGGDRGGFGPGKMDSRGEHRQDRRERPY

Row | Binder | Kd (FUS (FLAGHA-FUS-His6) [2]) | binding result (FUS (FLAGHA-FUS-His6) [2]) | further results
1 | GGUGGUGGUGGUGGUGGUGGUGGUGGUGGUGGUGGU (ssRNA) [GGU trinucleotide repeat (x12)] | – | – | binding signal (FUS (FLAGHA-FUS-His6) [1]): > 15 fold lower Kd than SON_AB (at least; as worded in text)
2 | GAUUUAUCUUUAACUACUCAAGAUACUGAACAUGACA (structured_RNA) [SON_AB (natural left-right stem)] | 148 nM | – | –
3 | GAUUAAGAUAUAACUACUCAAGAUACUGAACAUGACA (ssRNA) [SON_BB (non-complementary right-right stem)] | – | no binding | –
4 | GAUUAAGAUAUAACUACUCUAUCUUCUGAACAUGACA (structured_RNA) [SON_BA (reconstituted right-left stem)] | – | binds | –
5 | AUUAUUAUUAUUAUUAUUAUUAUUAUUAUUAUUAUU (structured_RNA) [AUU trinucleotide repeat (x12)] | 198 nM | – | –
